Results reported in US20240124575A1 (SIMCERE ZAIMING PHARMACEUTICAL, published 2024).

What was measured:
monkey CD33-His protein [1] = biological target: T1, monkey CD33-His protein (monkey); experiment: ELISA on coated monkey CD33-his
T1 construct: also called monkey CD33 protein

[2] = biological target: T2, human CD33-His (extracellular domain Asp 18-His 259) (human, UniProt P20138 18-259); experiment: ELISA on coated human CD33-his
T2 construct: range 18-259; bought protein; also called hCD33-his; human CD33 protein; not shown: His tag
T2 sequence (P20138 18-259 limits assumed): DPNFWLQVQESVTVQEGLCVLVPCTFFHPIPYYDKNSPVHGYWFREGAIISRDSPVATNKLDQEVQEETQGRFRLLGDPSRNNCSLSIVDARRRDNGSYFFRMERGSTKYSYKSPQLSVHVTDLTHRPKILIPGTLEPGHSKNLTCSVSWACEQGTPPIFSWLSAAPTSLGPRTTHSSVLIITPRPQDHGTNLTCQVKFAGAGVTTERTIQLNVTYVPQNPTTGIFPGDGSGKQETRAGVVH
Description: In order to assay the binding activity of VHH-Fc to human CD33 protein, a human CD33-his protein (purchased from ACROBiosystems, Cat. No. CD3-H5226) was diluted with PBS to make a final concentration of 2 μg/mL, and then added into a 96-well ELISA plate at 100 μL/well. The plate was sealed with a plastic film and incubated at 4° C. overnight, washed twice with PBS the next day, and a blocking solution [PBS+2% (w/w) BSA] was added for blocking at room temperature for 2 h. The blocking solution was discarded, and VHH-Fc antibody or negative control antibody serially diluted from 100 nM was added at 50 μL/well. After incubation at 37° C. for 2 h, the plate was washed 3 times with PBS. A secondary antibody labeled with HRP (horseradish peroxidase) (purchased from Sigma, Cat. No. A0170) was added. After incubation for 1 h at 37° C., the plate was washed 5 times with PBS. A TMB substrate was added at 50 μL/well. After incubation at room temperature for 10 min, a stop solution (1.0 N HCl) was added at 50 μL/well. The OD450 nm values were read on an ELISA plate reader (Multimode Plate Reader, EnSight, purchased from Perkin Elmer). The assay results for the binding of the VHH-Fc to hCD33-his by ELISA are shown in FIGS. 7A and 7B and Tables 11 and 12. […] The IgG control was hIgG1, and the data in the table are OD450 nm values. […]

[3] = biological target: T2, human CD33-His (extracellular domain …); experiment: ELISA, antigen coated
Description: In order to assay the binding activity of VHH-Fc to human CD33 protein, a human CD33-his protein (purchased from ACROBiosystems, Cat. No. CD3-H5226) was diluted with PBS to make a final concentration of 2 μg/mL, and then added into a 96-well ELISA plate at 100 μL/well. The plate was sealed with a plastic film and incubated at 4° C. overnight, washed twice with PBS the next day, and a blocking solution [PBS+2% (w/w) BSA] was added for blocking at room temperature for 2 h. The blocking solution was discarded, and VHH-Fc antibody or negative control antibody serially diluted from 100 nM was added at 50 μL/well. After incubation at 37° C. for 2 h, the plate was washed 3 times with PBS. A secondary antibody labeled with HRP (horseradish peroxidase) (purchased from Sigma, Cat. No. A0170) was added. After incubation for 1 h at 37° C., the plate was washed 5 times with PBS. A TMB substrate was added at 50 μL/well. After incubation at room temperature for 10 min, a stop solution (1.0 N HCl) was added at 50 μL/well. The OD450 nm values were read on an ELISA plate reader (Multimode Plate Reader, EnSight, purchased from Perkin Elmer). The assay results for the binding of the VHH-Fc to hCD33-his by ELISA are shown in FIGS. 7A and 7B and Tables 11 and 12. […] The IgG control was hIgG1, and the data in the table are OD450 nm values.

human CD33-his protein [4] = biological target: T3, human CD33-his protein (human, UniProt P20138 18-259); experiment: competition ELISA, coated human CD33-his, vs Biotin-C33B904 at EC80; antibody 500 nM
T3 construct: range 18-259; bought protein; also called hCD33-his; recombinant human CD33-his; not shown: His tag
T3 sequence (P20138 18-259 limits assumed): as above
Description: The plate was sealed with a plastic film and incubated at 4° C. overnight, washed twice with PBS the next day, and a blocking solution [PBS+2% (w/w) BSA] was added for blocking at room temperature for 2 h. The blocking solution was discarded, and VHH-Fc antibody or negative control antibody serially diluted from 100 nM was added at 50 μL/well. After incubation at 37° C. for 2 h, the plate was washed 3 times with PBS. A secondary antibody labeled with HRP (horseradish peroxidase) (purchased from Sigma, Cat. No. A0170) was added. After incubation for 1 h at 37° C., the plate was washed 5 times with PBS. A TMB substrate was added at 50 μL/well. After incubation at room temperature for 10 min, a stop solution (1.0 N HCl) was added at 50 μL/well. The OD450 nm values were read on an ELISA plate reader (Multimode Plate Reader, EnSight, purchased from Perkin Elmer). The assay results for the binding of the VHH-Fc to hCD33-his by ELISA are shown in FIGS. 7A and 7B and Tables 11 and 12. […] The IgG control was hIgG1, and the data in the table are OD450 nm values.
ELISA plates were coated with 2 μg/mL human CD33-his protein according to the method in Example 5.1; the Biotin-C331B904 antibody was subjected to a gradient dilution from 15 μg/mL, and EC80 values (0.18 μg/mL) were calculated. […] OD_{450 nm} values were read using an ELISA plate reader (Insight, purchased from PerkinElmer). […]

human CD33-his protein [5] = biological target: T3, human CD33-his protein; experiment: competition ELISA, coated human CD33-his, vs Biotin-C33B904 at EC80; antibody 0.49 nM
Description: (§1) ELISA plates were coated with 2 μg/mL human CD33-his protein according to the method in Example 5.1; the Biotin-C331B904 antibody was subjected to a gradient dilution from 15 μg/mL, and EC80 values (0.18 μg/mL) were calculated. ELISA plates were coated with 2 μg/mL human CD33-his protein; starting from 40 μg/mL, the VHH antibodies to be tested were diluted in a 1:2 dilution ratio to obtain seven concentrations and added to the ELISA plates, and then Biotin-C331904 antibodies with the EC80 concentrations were added for incubation for 2 h. The plates were washed 5 times with PBS and then […] (purchased from Sigma, Cat. No. S2438) were added for incubation for 1 h, and the plates were washed 5 times. A TMB substrate was added at 50 μL/well and incubated at room temperature for 10 min, then a stop solution (1.0 M HCl) was added at 50 μL/well. OD_{450 nm} values were read using an ELISA plate reader (Insight, purchased from PerkinElmer). Then, analysis was performed by software (GraphPad Prism8), and data were fitted for curve plotting. The results are shown in FIGS. 13A-13B and Tables 28 and 29.

monkey CD33-his protein [6] = biological target: T4, monkey CD33-his protein (monkey); experiment: SPR (Biacore), antibody captured on Protein A chip, monkey CD33 analyte
T4 construct: bought protein; also called monkey CD33 protein (Sino Biological, Cat. No. 50712-M08H)

human CD33-his protein [7] = biological target: T3, human CD33-his protein; experiment: competition ELISA, coated human CD33-his, vs Biotin-C33B904 at EC80; antibody 7.81 nM
Description: as §1

human CD33-his protein [8] = biological target: T3, human CD33-his protein; experiment: competition ELISA, coated human CD33-his, vs Biotin-C33B904 at EC80; antibody 500 nM; remark: listed apart in the source
Description: as §1

Row | EC50 (read off the curve) (monkey CD33-His protein [1]) | EC50 (read off the curve) [2] | OD450 at 0.0001 nM [3] | OD450 at 0.001 nM [3] | OD450 at 0.01 nM [3] | OD450 at 0.1 nM [3] | OD450 at 1 nM [3] | OD450 at 10 nM [3] | OD450 at 100 nM [3] | OD450 (Biotin-C33B904 signal) (human CD33-his protein [4]) | OD450 (Biotin-C33B904 signal) (human CD33-his protein [5]) | Kd (monkey CD33-his protein [6]) | koff (monkey CD33-his protein [6]) | kon (monkey CD33-his protein [6]) | OD450 (Biotin-C33B904 signal) (human CD33-his protein [7]) | OD450 (Biotin-C33B904 signal) (human CD33-his protein [8]) | Binder
1 | ~0.2 nM | ~0.3 nM | 0.04 OD450 | 0.05 OD450 | 0.14 OD450 | 0.53 OD450 | 1.92 OD450 | 2.55 OD450 | 2.61 OD450 | – | – | – | – | – | – | – | C33B904 hIgG1 (antibody, V domains shown, intact human IgG1; variable regions from US20190382481A1; also called C33B3904; C331B904) VH: EVQLVESGGGLVQPGRSLRLSCAASGFTFDDYAMHWVRQAPGKGLEWVSGIGWSGGSIVYADSVKGRFTISRDNAKNSLYLQMNSLRAEDTALYYCAKDSPYGDFFDYWGQGTLVTVSS VL: DIVMTQSPDSLAVSLGERATINCKSSQTVFYSSNNKNYLAWYQQKPGQPPKLLISWASTRKSGVPDRFSGSGSGTDFTLTVSSLQAEDVAVYYCQHYYSTPYTFGQGTKLEIKR
2 | – | – | – | – | – | – | – | – | – | 0.08 | 2.26 | 0.565 nM | 0.000626 s⁻¹ | 1.11e+06 M⁻¹ s⁻¹ | 1.11 | 0.08 | C33B904 (antibody, human IgG1, kappa, V domains shown, control antibody, intact human IgG1 form; variable regions from US20190382481A1; also called C33B904 hIgG1; C331B904) VH: EVQLVESGGGLVQPGRSLRLSCAASGFTFDDYAMHWVRQAPGKGLEWVSGIGWSGGSIVYADSVKGRFTISRDNAKNSLYLQMNSLRAEDTALYYCAKDSPYGDFFDYWGQGTLVTVSS VL: DIVMTQSPDSLAVSLGERATINCKSSQTVFYSSNNKNYLAWYQQKPGQPPKLLISWASTRKSGVPDRFSGSGSGTDFTLTVSSLQAEDVAVYYCQHYYSTPYTFGQGTKLEIKR
